Results as given in publication PMC4657161 (The Journal of Cell Biology, 2015).

Target: T1, Rab40A (on the HuProt array) (human, UniProt Q8WXH6 1-277)
T1 sequence: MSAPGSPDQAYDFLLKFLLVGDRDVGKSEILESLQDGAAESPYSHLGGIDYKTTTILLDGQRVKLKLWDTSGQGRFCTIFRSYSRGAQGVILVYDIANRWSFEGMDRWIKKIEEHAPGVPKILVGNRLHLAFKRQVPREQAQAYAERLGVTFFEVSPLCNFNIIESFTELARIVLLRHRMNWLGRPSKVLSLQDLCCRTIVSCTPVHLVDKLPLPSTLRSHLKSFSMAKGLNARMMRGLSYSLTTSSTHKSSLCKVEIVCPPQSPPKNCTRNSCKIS
Test: peptide or protein array

B1: HIS-RhoU (natural protein)
chain: not shown
Q: Does B1 bind?
A: Result: binds
